The record followed here is the supplement of paper PMC9233669.

Fewer inactive variants are shown than the library holds.

For one series, the system named is biotinyl-Phe-oxazolone. Nature of the series: self-aminoacylation, catalytic enhancement (BFO) (fold over background); higher = more active; k-Seq, kA / k0A0; sequences stand for … in GGGAAUGGAUCCACAUCUACGAAUUC…UUCACUGCAGACUUGACGAAGCUG
In outline:
(§1)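 Each biotinyl-aminoacyl-oxazolone, at 2–1250 μM, was incubated with mutagenized RNA pools (0.43 μM) carrying a 21-nt variable region. The 50 μL reactions contained HEPES/NaCl/KCl/MgCl2/CaCl2 buffer with 5% acetonitrile at pH 6.9–7.0 and ran for 90 minutes at room temperature. After streptavidin capture, RNA was measured by qPCR in triplicate and by Illumina sequencing, and catalytic enhancement was calculated as median kA over the uncatalyzed rate from a pseudo-first-order fit of per-sequence fraction reacted.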

The next series deals with biotinyl-Ile-oxazolone. Kind of series: self-aminoacylation, catalytic enhancement (BIO) (fold over background); higher = more active; k-Seq, kA / k0A0; sequences stand for … in GGGAAUGGAUCCACAUCUACGAAUUC…UUCACUGCAGACUUGACGAAGCUG
The essentials: as §1

The test system of another series is biotinyl-Met-oxazolone. Nature of the series: self-aminoacylation, catalytic enhancement (BMO) (fold over background); higher = more active; k-Seq, kA / k0A0; sequences stand for … in GGGAAUGGAUCCACAUCUACGAAUUC…UUCACUGCAGACUUGACGAAGCUG
In outline: as §1

For the next series, the system named is biotinyl-Leu-oxazolone. Nature of the series: self-aminoacylation, catalytic enhancement (BLO) (fold over background); higher = more active; k-Seq, kA / k0A0; sequences stand for … in GGGAAUGGAUCCACAUCUACGAAUUC…UUCACUGCAGACUUGACGAAGCUG
In outline: as §1

The subject of a further series is biotinyl-Val-oxazolone. Nature of the series: self-aminoacylation, catalytic enhancement (BVO) (fold over background); higher = more active; k-Seq, kA / k0A0; sequences stand for … in GGGAAUGGAUCCACAUCUACGAAUUC…UUCACUGCAGACUUGACGAAGCUG
In outline:
as §1

Another series concerns biotinyl-Trp-oxazolone. Nature of the series: self-aminoacylation, catalytic enhancement (BWO) (fold over background); higher = more active; k-Seq, kA / k0A0; sequences stand for … in GGGAAUGGAUCCACAUCUACGAAUUC…UUCACUGCAGACUUGACGAAGCUG
The essentials:
as §1

Turning to “AAGGUUGCUAAUCGUCGCAAG [Fam3.1 aminoacylation ribozyme variant]”, the self-aminoacylation is 3.36 with biotinyl-Phe-oxazolone; 1.27 with biotinyl-Ile-oxazolone; 1.07 with biotinyl-Met-oxazolone; 1.09 in the series on biotinyl-Leu-oxazolone; 1.2 in the series on biotinyl-Val-oxazolone; 2.14 in the series with biotinyl-Trp-oxazolone.

For “AAGGUUGCUCAUAGUCGCAAG [Fam3.1 aminoacylation ribozyme variant]”, the self-aminoacylation in the series on biotinyl-Phe-oxazolone is 4.12; in the series with biotinyl-Ile-oxazolone, 1.46; in the series on biotinyl-Met-oxazolone, 1.57; with biotinyl-Leu-oxazolone, 1.63; in the series on biotinyl-Val-oxazolone it was 1.25; with biotinyl-Trp-oxazolone it was 1.5.

On to “AAGUACGCUAAUAGUCGCAAG [Fam3.1 aminoacylation ribozyme variant]”, for which the self-aminoacylation amounted to 6.76 with biotinyl-Phe-oxazolone; 1.94 in the series with biotinyl-Ile-oxazolone; 1.59 in the series on biotinyl-Met-oxazolone; 2.38 in the series with biotinyl-Leu-oxazolone; 1.8 in the series with biotinyl-Val-oxazolone; 3.1 in the series on biotinyl-Trp-oxazolone.

“AAGUAUGCUAAUAGGCGCAAG [Fam3.1 aminoacylation ribozyme variant]”: the self-aminoacylation in the series on biotinyl-Phe-oxazolone worked out at 0.856; in the series on biotinyl-Ile-oxazolone, 0.992; in the series on biotinyl-Met-oxazolone, 0.748; with biotinyl-Leu-oxazolone, 1.08; with biotinyl-Val-oxazolone, 1.18; with biotinyl-Trp-oxazolone, 1.58.

For “AAGUAUGCUAAUAGUCCCAAG [Fam3.1 aminoacylation ribozyme variant]”, the self-aminoacylation with biotinyl-Phe-oxazolone was found to be 3.66; with biotinyl-Ile-oxazolone it was 1.14; in the series on biotinyl-Met-oxazolone, 1.18; in the series on biotinyl-Leu-oxazolone it was 1.02; with biotinyl-Val-oxazolone, 1.16; in the series with biotinyl-Trp-oxazolone, 1.54.

As for “AAGUAUGCUAAUAGUCGCAAA [Fam3.1 aminoacylation ribozyme variant]”, the self-aminoacylation with biotinyl-Phe-oxazolone was 3.99; with biotinyl-Ile-oxazolone it was 1.82; with biotinyl-Met-oxazolone, 1.67; in the series with biotinyl-Leu-oxazolone it was 1.26; in the series with biotinyl-Val-oxazolone it was 1.96; in the series on biotinyl-Trp-oxazolone it was 1.7.

Regarding “AAGUAUGCUAAUAGUCGCAAC [Fam3.1 aminoacylation ribozyme variant]”, the self-aminoacylation was 2.19 in the series on biotinyl-Phe-oxazolone; 1.22 in the series on biotinyl-Ile-oxazolone; 1.2 with biotinyl-Met-oxazolone; 1.28 with biotinyl-Leu-oxazolone; 0.942 in the series on biotinyl-Val-oxazolone; 1.23 in the series with biotinyl-Trp-oxazolone.

For “AAGUAUGCUAGUAGUCGCAAG [Fam3.1 aminoacylation ribozyme variant]”, the self-aminoacylation in the series with biotinyl-Phe-oxazolone stood at 2.22; in the series with biotinyl-Ile-oxazolone, 1.26; with biotinyl-Met-oxazolone it was 1.22; in the series on biotinyl-Leu-oxazolone, 0.756; in the series on biotinyl-Val-oxazolone, 1.35; in the series on biotinyl-Trp-oxazolone it was 1.12.

On to “AAGUCAGCUAAUAGUCGCAAG [Fam3.1 aminoacylation ribozyme variant]”, for which the self-aminoacylation is 5.28 in the series on biotinyl-Phe-oxazolone; 1.94 with biotinyl-Ile-oxazolone; 1.83 in the series on biotinyl-Met-oxazolone; 2.22 with biotinyl-Leu-oxazolone; 2 with biotinyl-Val-oxazolone; 3.06 in the series on biotinyl-Trp-oxazolone.

With “AAGUCUGCUAAUAGCCGCAAG [Fam3.1 aminoacylation ribozyme variant]”, the self-aminoacylation in the series on biotinyl-Phe-oxazolone was determined as 8.57; in the series on biotinyl-Ile-oxazolone it was 1.11; with biotinyl-Met-oxazolone, 1.13; in the series with biotinyl-Leu-oxazolone, 0.989; in the series with biotinyl-Val-oxazolone, 1.02; with biotinyl-Trp-oxazolone, 3.25.

As for “AAGUCUGCUAAUAGUCGAAAG [Fam3.1 aminoacylation ribozyme variant]”, the self-aminoacylation in the series with biotinyl-Phe-oxazolone came out at 16.8; in the series on biotinyl-Ile-oxazolone it was 1.1; with biotinyl-Met-oxazolone, 1.84; with biotinyl-Leu-oxazolone, 1.52; in the series with biotinyl-Val-oxazolone, 1.04; with biotinyl-Trp-oxazolone, 6.05.

In the case of “AAGUCUGCUAAUAGUCGCAAC [Fam3.1 aminoacylation ribozyme variant]”, the self-aminoacylation in the series on biotinyl-Phe-oxazolone amounted to 1.39; in the series with biotinyl-Ile-oxazolone, 1.03; in the series on biotinyl-Met-oxazolone, 1.04; in the series on biotinyl-Leu-oxazolone it was 1.39; in the series with biotinyl-Val-oxazolone, 1.06; in the series on biotinyl-Trp-oxazolone it was 0.655.

“AAGUCUGCUAAUAGUCGCCAG [Fam3.1 aminoacylation ribozyme variant]”: the self-aminoacylation is 1.8 with biotinyl-Phe-oxazolone; 1.1 in the series with biotinyl-Ile-oxazolone; 1.34 with biotinyl-Met-oxazolone; 1.04 in the series on biotinyl-Leu-oxazolone; 1.32 in the series on biotinyl-Val-oxazolone; 3.43 in the series with biotinyl-Trp-oxazolone.
